Each block holds one binder with its values, some of them ahead of it.
B1: human phosphorylase kinase β subunit (PHKB), dephosphorylated (natural protein, UniProt Q93100 1-1093, looked up)
chain: MAGAAGLTAEVSWKVLERRARTKRSGSVYEPLKSINLPRPDNETLWDKLDHYYRIVKSTLLLYQSPTTGLFPTKTCGGDQKAKIQDSLYCAAGAWALALAYRRIDDDKGRTHELEHSAIKCMRGILYCYMRQADKVQQFKQDPRPTTCLHSVFNVHTGDELLSYEEYGHLQINAVSLYLLYLVEMISSGLQIIYNTDEVSFIQNLVFCVERVYRVPDFGVWERGSKYNNGSTELHSSSVGLAKAALEAINGFNLFGNQGCSWSVIFVDLDAHNRNRQTLCSLLPRESRSHNTDAALLPCISYPAFALDDEVLFSQTLDKVVRKLKGKYGFKRFLRDGYRTSLEDPNRCYYKPAEIKLFDGIECEFPIFFLYMMIDGVFRGNPKQVQEYQDLLTPVLHHTTEGYPVVPKYYYVPADFVEYEKNNPGSQKRFPSNCGRDGKLFLWGQALYIIAKLLADELISPKDIDPVQRYVPLKDQRNVSMRFSNQGPLENDLVVHVALIAESQRLQVFLNTYGIQTQTPQQVEPIQIWPQQELVKAYLQLGINEKLGLSGRPDRPIGCLGTSKIYRILGKTVVCYPIIFDLSDFYMSQDVFLLIDDIKNALQFIKQYWKMHGRPLFLVLIREDNIRGSRFNPILDMLAALKKGIIGGVKVHVDRLQTLISGAVVEQLDFLRISDTEELPEFKSFEELEPPKHSKVKRQSSTPSAPELGQQPDVNISEWKDKPTHEILQKLNDCSCLASQAILLGILLKREGPNFITKEGTVSDHIERVYRRAGSQKLWLAVRYGAAFTQKFSSSIAPHITTFLVHGKQVTLGAFGHEEEVISNPLSPRVIQNIIYYKCNTHDEREAVIQQELVIHIGWIISNNPELFSGMLKIRIGWIIHAMEYELQIRGGDKPALDLYQLSPSEVKQLLLDILQPQQNGRCWLNRRQIDGSLNRTPTGFYDRVWQILERTPNGIIVAGKHLPQQPTLSDMTMYEMNFSLLVEDTLGNIDQPQYRQIVVELLMVVSIVLERNPELEFQDKVDLDRLVKEAFNEFQKDQSRLKEIEKQDDMTSFYNTPPLGKRGTCSYLTKAVMNLLLEGEVKPNNDDPCLIS
B3: human muscle glycogen phosphorylase (PYGM) (enzyme, UniProt P11217 1-842, looked up)
chain: MSRPLSDQEKRKQISVRGLAGVENVTELKKNFNRHLHFTLVKDRNVATPRDYYFALAHTVRDHLVGRWIRTQQHYYEKDPKRIYYLSLEFYMGRTLQNTMVNLALENACDEATYQLGLDMEELEEIEEDAGLGNGGLGRLAACFLDSMATLGLAAYGYGIRYEFGIFNQKISGGWQMEEADDWLRYGNPWEKARPEFTLPVHFYGHVEHTSQGAKWVDTQVVLAMPYDTPVPGYRNNVVNTMRLWSAKAPNDFNLKDFNVGGYIQAVLDRNLAENISRVLYPNDNFFEGKELRLKQEYFVVAATLQDIIRRFKSSKFGCRDPVRTNFDAFPDKVAIQLNDTHPSLAIPELMRILVDLERMDWDKAWDVTVRTCAYTNHTVLPEALERWPVHLLETLLPRHLQIIYEINQRFLNRVAAAFPGDVDRLRRMSLVEEGAVKRINMAHLCIAGSHAVNGVARIHSEILKKTIFKDFYELEPHKFQNKTNGITPRRWLVLCNPGLAEVIAERIGEDFISDLDQLRKLLSFVDDEAFIRDVAKVKQENKLKFAAYLEREYKVHINPNSLFDIQVKRIHEYKRQLLNCLHVITLYNRIKREPNKFFVPRTVMIGGKAAPGYHMAKMIIRLVTAIGDVVNHDPAVGDRLRVIFLENYRVSLAEKVIPAADLSEQISTAGTEASGTGNMKFMLNGALTIGTMDGANVEMAEEAGEENFFIFGMRVEDVDKLDQRGYNAQEYYDRIPELRQVIEQLSSGFFSPKQPDLFKDIVNMLMHHDRFKVFADYEDYIKCQEKVSALYKNPREWTRMVIRNIATSGKFSSDRTIAQYAREIWGVEPSRQRLPAPDEAI

Legend:
cryo-EM structure = target: the molecule itself; experiment: cryo-EM structure
[1] = target: human calmodulin, δ subunit of phosphorylase kinase (human, UniProt P0DP25 1-149); experiment: cryo-EM structure
[2] = target: B3; experiment: cross-linking
[3] = target: T1, human muscle phosphorylase kinase α subunit (PHKA1), dephosphorylated (human, UniProt P46020 1-1223); experiment: cross-linking
T1 sequence (looked up): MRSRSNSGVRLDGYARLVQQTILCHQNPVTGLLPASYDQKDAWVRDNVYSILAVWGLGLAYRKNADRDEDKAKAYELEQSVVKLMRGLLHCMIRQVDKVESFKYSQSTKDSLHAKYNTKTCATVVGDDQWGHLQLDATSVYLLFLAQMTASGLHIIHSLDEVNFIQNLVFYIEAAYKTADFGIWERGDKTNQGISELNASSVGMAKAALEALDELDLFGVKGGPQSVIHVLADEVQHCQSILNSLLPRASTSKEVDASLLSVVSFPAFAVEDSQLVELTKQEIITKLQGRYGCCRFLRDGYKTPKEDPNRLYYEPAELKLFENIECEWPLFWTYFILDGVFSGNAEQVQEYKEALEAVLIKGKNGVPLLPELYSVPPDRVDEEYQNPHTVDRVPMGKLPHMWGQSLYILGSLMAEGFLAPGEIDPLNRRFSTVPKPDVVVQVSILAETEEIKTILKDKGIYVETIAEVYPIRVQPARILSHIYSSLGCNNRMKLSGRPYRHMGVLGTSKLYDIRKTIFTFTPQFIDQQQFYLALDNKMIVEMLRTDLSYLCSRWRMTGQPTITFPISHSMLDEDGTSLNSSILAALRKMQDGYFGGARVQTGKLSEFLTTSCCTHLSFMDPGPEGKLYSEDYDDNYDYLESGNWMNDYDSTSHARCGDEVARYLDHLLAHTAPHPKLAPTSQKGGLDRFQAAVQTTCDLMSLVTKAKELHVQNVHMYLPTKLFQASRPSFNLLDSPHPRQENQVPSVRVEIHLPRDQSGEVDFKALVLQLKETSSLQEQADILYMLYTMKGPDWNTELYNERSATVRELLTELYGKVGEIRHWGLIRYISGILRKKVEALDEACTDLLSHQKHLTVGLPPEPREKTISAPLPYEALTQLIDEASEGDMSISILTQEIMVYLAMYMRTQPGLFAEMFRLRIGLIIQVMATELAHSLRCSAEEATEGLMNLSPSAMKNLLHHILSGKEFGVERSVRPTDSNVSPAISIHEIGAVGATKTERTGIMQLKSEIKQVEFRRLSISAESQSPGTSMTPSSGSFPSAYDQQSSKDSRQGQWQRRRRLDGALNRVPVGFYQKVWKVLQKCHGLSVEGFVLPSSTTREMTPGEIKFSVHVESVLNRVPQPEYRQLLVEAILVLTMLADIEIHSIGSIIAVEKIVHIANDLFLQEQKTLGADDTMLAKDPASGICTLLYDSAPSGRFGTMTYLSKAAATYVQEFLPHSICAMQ

[4] = target: B1; experiment: cross-linking

Binder: B1
stoichiometry N (cryo-EM structure): 4

binding result [1]: binds
binding result [2]: binds
B2: human muscle phosphorylase kinase γ subunit (PHKG1) (enzyme)
chain: not shown

Binder: B3
binding result [3]: binds
binding result [4]: binds

Reference: paper PMC11950179 (Nature Communications, 2025)
